The values that follow come from paper PMC5413351 (2017).

Where no end group is shown, it is not given here. fluorescein‑5‑maleimide = fluorescein-5-maleimide

Holding throughout (test): FP
Assay [1] addresses T1, Vps4^101-437 L151D (S. cerevisiae, UniProt P52917 101-437, L151D).
T1 sequence: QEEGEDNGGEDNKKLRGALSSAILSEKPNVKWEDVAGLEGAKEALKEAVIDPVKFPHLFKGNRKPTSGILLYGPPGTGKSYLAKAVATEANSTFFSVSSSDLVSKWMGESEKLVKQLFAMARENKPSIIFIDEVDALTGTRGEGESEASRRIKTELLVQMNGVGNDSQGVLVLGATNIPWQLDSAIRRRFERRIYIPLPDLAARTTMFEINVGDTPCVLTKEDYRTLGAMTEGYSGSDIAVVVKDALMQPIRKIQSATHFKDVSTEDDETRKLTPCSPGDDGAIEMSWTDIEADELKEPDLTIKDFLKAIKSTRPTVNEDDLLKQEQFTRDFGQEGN

Assay [2] addresses Vps4^101-437-Hcp1 R325D (S. cerevisiae | Pseudomonas aeruginosa, UniProt P52917 101-437, R325D).
Assay [3] has as its target Vps4^101-437-Hcp1 K321A (S. cerevisiae | Pseudomonas aeruginosa, UniProt P52917 101-437, K321A).
Assay [4] deals with Vps4^101-437-Hcp1 (S. cerevisiae | Pseudomonas aeruginosa, UniProt P52917 101-437).
The target in assay [5] is Vps4^101-437-Hcp1 E322A (S. cerevisiae | Pseudomonas aeruginosa, UniProt P52917 101-437, E322A).

B1: fluorescently labeled Vta1^VSL S278C (domain or fragment)
chain: C(fluorescein‑5‑maleimide)YTKDELTKIMDRASKIEQIQKLAKYAISALNYEDLPTAKDELTKALDLLNSI
The Kd is the concentration at which binding is half-saturated. High values mean lower affinity, low ones higher affinity. Molecule B1 gave a Kd in assay [1] of 4400 nM.

B2: fluorescently labeled Vta1^VSL S278C (domain or fragment)
chain: MASNAARVVATAKDFDKVGLGIIGYYLQLYAVELILSEEDRSQEMTALATELLDTIEAFKKEIGGESEAEDSDKSLHVMNTLIHDQEKAKIYMLNFTMSLYNEKLKQLKDGPWDVMLKRSLWCCIDLFSCILHLWKENISETSTNSLQKRIKYCKIYLSKLAKGEIGSSDEKTLDYADFADDSEEIKDEDVDHQTSDLENNNNDKVEGLAPKDQTTSYEPVDEVPEFIDDADSVNEEEQTVDKNEDAITKDEQQVVKKEVDLTRPSAPSEPAAAEHKCYTKDELTKIMDRASKIEQIQKLAKYAISALNYEDLPTAKDELTKALDLLNSI
modifications: fluorescein-5-maleimide on the single cysteine (S278C)
Take B2: the Kd in assay [2] came to 564 nM; in assay [3], 367 nM; in assay [4], 184 nM; in assay [5] it was 72 nM.
